Results reported in article PMC6498484.

Target: T1, PoxCxrA17-150 (Penicillium oxalicum HP7-1) (UniProt A0A2H4WV05)
T1 sequence: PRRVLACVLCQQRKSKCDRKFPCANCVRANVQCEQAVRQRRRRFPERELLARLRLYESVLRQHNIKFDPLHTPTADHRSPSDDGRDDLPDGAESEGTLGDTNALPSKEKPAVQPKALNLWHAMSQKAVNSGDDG
Assay: EMSA
Conditions: EMSA: 20 mM Tris-HCl pH 8.0, 50 mM KCl, 0.1 mg/mL BSA, 5% glycerol, 1 mM DTT, 1 ug salmon sperm DNA, ~50 ng probe, 30 min at 30 C; footprinting at 30 C

Which binding does the source give for “AGGAGACGAACAAATGAAAAACAGTTGGCCAACAATTCAACCAAGACCGGCTTCCCTGGAATTGCGGGGAGGGGAGAGTCGTGAAAGTGGATAAGGCTCCTTAATTTTTTTTTTCCCTTCCTCCTGGCCATCGTGTTTTATGGAGGTTCGCTTCCGTCTTGACTATCCGCCGTCGCACTCTTAGTCTCCCCGTTGACCCTCTTTTTCTTCACATCGTCAGATCGTGATCGTTGATCGTTCGGTGCTCTTCTGCTTCTTTTGCTGCTCACCTCCTCCTCCCCCCAGCTGA (double strand) [PBM_PoxClrB-6']” here?
The binding was “binds”.

Which binding does the source give for “AGGAGACGAACAAATGAAAAACAGTTGGCCAACAATTCAACCAAGACCGGCTTCCCTGGAATTGCGGGGAGGGGAGAGTCGTGAAAGTGGATAAGGCTCCTTAATTTTTTTTTTCCCTTCCTCCTGGCCATCGTGTTTTATGGAGGTTCGCTTCCGTCTTGACTATCCGCCGTCGCACTCTTAGTCTCCCCGTTGACCCTCTTTTTCTTCACATCGTCAGATCGTGATCGTTGATCGTTCGGTGCTCTTCTGCTTCTTTTGCTGCTCACCTCCTCCTCCCCCCAGCTGAGTCCTT (double strand) [PoxClrB-295]” here?
Its binding is “binds”.

For “AGGATCTGATGAAAGGGGGGTGGTGGAGGAGATGAGGAAGGAATGGATGATGAACACCAGAGTCGAGGTGATGGCACCTCTTCTTATATAGTTGCTTCCTTGGGTGGATCCTGAAGCAATTCGCCTCTC (double strand) [PBM_POX05587-6']”, which binding is on record?
Its binding is “binds”.

How did the binding turn out when “CCCCTTTCATCAGATCCTCAAAGAACAAAATTGATCATCATCTCTTTTGATCTTTGATCCAATCCATCACA (double strand) [PBM1 probe]” was run?
The binding was “binds”.

With “GACTCAGCTGGGGGGAGGAGGAGGTGAGCAGCAAAAGAAGCAGAAGAGCACCGAACGATCAACGATCACGATCTGACGATGTGAAGAAAAAGAGGGTCAACGGGGAGACTAAGAGTGCGACGGCGGATAGTCAAGACGGAAGCGAACCTCCATAAAACACGATGGCCAGGAGGAAGGGAAAAAAAAAATTAAGGAGCCTTATCCACTTTCACGACTCTCCCCTCCCCGCAATTCCAGGGAAGCCGGTCTTGGTTGAATTGTTGGCCAACTGTTTTTCATTTGTTCGTCTCCT (double strand) [PBM_PoxClrB-3']” as the sequence, how does the binding read?
The binding was “binds”.

How did the binding turn out when “GAGAGGCGAATTGCTTCAGGATCCACCCAAGGAAGCAACTATATAAGAAGAGGTGCCATCACCTCGACTCTGGTGTTCATCATCCATTCCTTCCTCATCTCCTCCACCACCCC (double strand) [PBM2 probe]” was run?
The binding was “no binding”.

How did the binding turn out when “GGTGAGCAGCAAAAGAAGCAGAAGAGCACCGAACGATCAACGATCACGATCTGACGATGTGAAGAAAAAGAGGGTCAACGGGGAGACTAAGAGTGCGACGGCGGATAGTCAAGACGGAAGCGAACCTCCATAAAACACGATGGCCAGGAGGAAGGGAAAAAAAAAATTAAGGAGCCTTATCCACTTTCACGACTCTCCCCTCCCCGCAATTCCAGGGAAGCCGGTCTTGGTTGAATTGTTGGCCAACTGTTTTTCATTTGTTCGTCTCCT (double strand) [PoxClrB-270]” was run?
The binding was “no binding”.

For “TGGGGGGAGGAGGAGGTGAGCAGCAAAAGAAGCAGAAGAGCACCGAACGATCAACGATCACGATCTGACGATGTGAAGAAAAAGAGGGTCAACGGGGAGACTAAGAGTGCGACGGCGGATAGTCAAGACGGAAGCGAACCTCCATAAAACACGATGGCCAGGAGGAAGGGAAAAAAAAAATTAAGGAGCCTTATCCACTTTCACGACTCTCCCCTCCCCGCAATTCCAGGGAAGCCGGTCTTGGTTGAATTGTTGGCCAACTGTTTTTCATTTGTTCGTCTCCT (double strand) [PoxClrB-284]”, which binding is on record?
Its binding is “no binding”.

For “TGTGATGGATTGGATCAAAGATCAAAAGAGATGATGATCAATTTTGTTCTTTGAGGA (double strand) [PBM_POX05587-6]”, which binding is on record?
The binding was “binds”.

How did the binding turn out when “TGTGATGGATTGGATCAAAGATCAAAAGAGATGATGATCAATTTTGTTCTTTGAGGATCT (double strand) [PBM_POX05587-3]” was run?
Its binding is “binds”.

For “TTGAGGATCTGATGAAAGGGGGGTGGTGGAGGAGATGAGGAAGGAATGGATGATGAACACCAGAGTCGAGGTGATGGCACCTCTTCTTATATAGTTGCTTCCTTGGGTGGATCCTGAAGCAATTCGCCTCTC (double strand) [PBM_POX05587-3']”, which binding is on record?
Its binding is “binds”.
